Strand notation (5' to 3'): a small letter for the sugar, then the base; units joined by * are phosphorothioate-linked, units joined directly phosphodiester-linked; [ ] holds rarer units or linkages, { } end groups; capitals alone tell only the bases. m = 2'-O-methyl; r = 2'-OH (RNA)
How the values were obtained:
TTR [1] = assay: TTR editing in primary human hepatocytes transfected with Spy Cas9 mRNA and sgRNAs (Table 13); assay type: cell-based; conditions: primary human hepatocytes co-transfected with Spy Cas9 mRNA (SEQ ID NO:2) and sgRNAs, 12.5 nM
Protocol: (§1) Primary liver hepatocytes. Primary human liver hepatocytes (PHH) and primary cynomolgus liver hepatocytes (PCH) (Gibco) were cultured per the manufacturer's protocol (Invitrogen, protocol 11.28.2012). In brief, the cells were thawed and resuspended in hepatocyte thawing medium with supplements (Gibco, Cat. CM7000) followed by centrifugation at 100 g for 10 minutes for human and 80 g for 4 minutes for cyno. The supernatant was discarded and the pelleted cells resuspended in hepatocyte plating medium plus supplement pack (Invitrogen, Cat. A1217601 and CM3000). Cells were counted and plated on Bio-coat collagen I coated 96-well plates (ThermoFisher, Cat. 877272) at a density of 33,000 cells/well for human or 60,000 cells/well for cyno (or 65,000 cells/well when assaying effects on TTR protein, described further below). Plated cells were allowed to settle and adhere for 6 or 24 hours in a tissue culture incubator at 37° C. and 5% CO2 atmosphere. After incubation cells were checked for monolayer formation and media was replaced with hepatocyte culture medium with serum-free supplement pack (Invitrogen, Cat. A1217601 and CM4000).
Lipofectamine RNAiMax (ThermoFisher, Cat. 13778150) based transfections were conducted as per the manufacturer's protocol. Cells were sequentially transfected with a lipoplex containing Spy Cas9 mRNA (100 ng), Lipofectamine RNAiMax (0.4 […]) and tracer RNA ([…]), Lipofectamine RNAiMax (0.4 μL/well) and OptiMem.
Transfected cells were harvested post-transfection at 24, 48, or 72 hours. The genomic DNA was extracted from each well of a 96-well plate using 50 μL/well BuccalAmp DNA Extraction solution (Epicentre, Cat. QE09050) per manufacturer's protocol. All DNA samples were subjected to PCR and subsequent NGS analyses, as described herein.
(§2) To quantitatively determine the efficiency of editing at the target location in the genome, sequencing was utilized to identify the presence of insertions and deletions introduced by gene editing.
(§3) Primers were designed around the target site within the gene of interest (e.g. TTR), and the genomic area of interest was amplified.
(§4) Additional PCR was performed per the manufacturer's protocols (Illumina) to add chemistry for sequencing. The amplicons were sequenced on an Illumina MiSeq instrument. The reads were aligned to a reference genome (e.g., the human reference genome (hg38), the cynomologus reference genome (mf5), the rat reference genome (rn6), or the mouse reference genome (mm10)) after eliminating those having low quality scores. The resulting files containing the reads were mapped to the reference genome (BAM files), where reads that overlapped the target region of interest were selected and the number of wild type reads versus the number of reads which contain an insertion, substitution, or deletion was calculated.
(§5) The editing percentage (e.g., the “editing efficiency” or “percent editing” or “indel frequency”) is defined as the total number of sequence reads with insertions/deletions (“indels”) or substitutions over the total number of sequence reads, including wild type.
Guides in modified sgRNA format targeting human and/or cyno TTR were delivered to primary human hepatocytes and primary cyno hepatocytes as described in Example 1. Percent editing was determined for crRNAs comprising each guide sequence across each cell type and the guide sequences were then rank ordered based on highest % edit. The screening data for the guide sequences in Table 2 in both cell lines are listed below (Table 12 through 15).

TTR [2] = assay: TTR editing in primary human hepatocytes treated with LNP formulated Spy Cas9 mRNA (SEQ ID NO: 2) and sgRNAs (Table 16); assay type: cell-based; conditions: LNP formulated Spy Cas9 mRNA (SEQ ID NO: 2) and sgRNA, 72 hours
Protocol: as §1
In general, the lipid nanoparticle components were dissolved in 100% ethanol with the lipid component of various molar ratios. The RNA cargos were dissolved in 25 mM citrate, 100 mM NaCl, pH 5.0, resulting in a concentration of RNA cargo of approximately 0.45 mg/mL. The LNPs were formulated with a lipid amine to RNA phosphate (N:P) molar ratio of about 4.5 or about 6, with the ratio of mRNA to gRNA at 1:1 by weight.
The LNPs were formed by microfluidic mixing of the lipid and RNA solutions using a Precision Nanosystems NanoAssemblr™ Benchtop Instrument, according to the manufacturer's protocol. A 2:1 ratio of aqueous to organic solvent was maintained during mixing using differential flow rates. After mixing, the LNPs were collected, diluted in water (approximately 1:1 v/v), held for 1 hour at room temperature, and further diluted with water (approximately 1:1 v/v) before final buffer exchange. The final buffer exchange into 50 mM Tris, 45 mM NaCl, 5% (w/v) sucrose, pH 7.5 (TSS) was completed with PD-10 desalting columns (GE). If required, formulations were concentrated by centrifugation with Amicon 100 kDa centrifugal filters (Millipore). The resulting mixture was then filtered using a 0.2 μm sterile filter. The final LNP was stored at −80° C. until further use.
as §2, §3, §4, §5
Lipid nanoparticle formulations of modified sgRNAs targeting human TTR and the cyno matched sgRNA sequences were tested on primary human hepatocytes and primary cyno hepatocytes in a dose response curve. Primary human and cyno hepatocytes were plated as described in Example 1. […]

TTR [3] = assay: TTR editing in primary cyno hepatocytes treated with LNP formulated Spy Cas9 mRNA (SEQ ID NO: 2) and sgRNAs (Tables 17, 18); assay type: cell-based, cynomolgus monkey; conditions: Table 17, LNP formulated Spy Cas9 mRNA (SEQ ID NO: 2) and sgRNA, 12.5 ng mRNA, 3.9 nM sgRNA, 72 hours
Procedure, shortened: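 Primary cynomolgus hepatocytes, 24 h after plating, dosed with LNPs (N:P about 4.5 or 6, mRNA:gRNA 1:1 by weight) pre-incubated 5 min at 37° C. in medium with 6% cyno serum, in an 8-point 2-fold dose response. Editing = indel/substitution reads over total reads by amplicon MiSeq sequencing.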

Row | Molecule | Avg % Deletion (TTR [1]) [%] | Avg % Edit (TTR [1]) [%] | Avg % Insert (TTR [1]) [%] | 12.5 ng mRNA, 3.9 nM sgRNA Avg % Edit (TTR [2]) [%] | 12.5 ng mRNA, 3.9 nM sgRNA Avg % Edit (TTR [3]) [%]
1 | G000500: TTR sgRNA modified sequence, Human, SEQ ID No. 107; guide sequence of CR003337 (nucleic acid) guide: mC*mC*mA*rGrUrCrCrArGrCrArArGrGrCrArGrArGrGrGrUrUrUrUrArGrAmGmCmUmAmGmAmAmAmUmAmGmCrArArGrUrUrArArArArUrArArGrGrCrUrArGrUrCrCrGrUrUrArUrCrAmAmCmUmUmGmAmAmAmAmAmGmUmGmGmCmAmCmCmGmAmGmUmCmGmGmUmGmCmU*mU*mU*mU | 3.10 | 35.50 | 32.47 | 23.57 | 10.47
2 | G000501: TTR sgRNA modified sequence, Human, SEQ ID No. 108; guide sequence of CR005300 (nucleic acid) guide: mU*mC*mA*rCrArGrArArArCrArCrUrCrArCrCrGrUrArGrUrUrUrUrArGrAmGmCmUmAmGmAmAmAmUmAmGmCrArArGrUrUrArArArArUrArArGrGrCrUrArGrUrCrCrGrUrUrArUrCrAmAmCmUmUmGmAmAmAmAmAmGmUmGmGmCmAmCmCmGmAmGmUmCmGmGmUmGmCmU*mU*mU*mU | 6.62 | 40.32 | 33.82 | 32.30 | 1.37
3 | G000567: TTR sgRNA modified sequence, Human, SEQ ID No. 109; guide sequence of CR003352 (nucleic acid) guide: mG*mA*mA*rArGrGrCrUrGrCrUrGrArUrGrArCrArCrCrGrUrUrUrUrArGrAmGmCmUmAmGmAmAmAmUmAmGmCrArArGrUrUrArArArArUrArArGrGrCrUrArGrUrCrCrGrUrUrArUrCrAmAmCmUmUmGmAmAmAmAmAmGmUmGmGmCmAmCmCmGmAmGmUmCmGmGmUmGmCmU*mU*mU*mU | 10.02 | 27.28 | 17.35 | 48.95 | 0.10
4 | G000572: TTR sgRNA modified sequence, Human, SEQ ID No. 113; guide sequence of CR003385 (nucleic acid) guide: mC*mC*mC*rCrUrArCrUrCrCrUrArUrUrCrCrArCrCrArGrUrUrUrUrArGrAmGmCmUmAmGmAmAmAmUmAmGmCrArArGrUrUrArArArArUrArArGrGrCrUrArGrUrCrCrGrUrUrArUrCrAmAmCmUmUmGmAmAmAmAmAmGmUmGmGmCmAmCmCmGmAmGmUmCmGmGmUmGmCmU*mU*mU*mU | 13.85 | 55.42 | 41.62 | 55.45 | 30.60
5 | G000497: TTR sgRNA modified sequence, Human, SEQ ID No. 104; guide sequence of CR003335 (nucleic acid) guide: mC*mU*mG*rCrUrCrCrUrCrCrUrCrUrGrCrCrUrUrGrCrGrUrUrUrUrArGrAmGmCmUmAmGmAmAmAmUmAmGmCrArArGrUrUrArArArArUrArArGrGrCrUrArGrUrCrCrGrUrUrArUrCrAmAmCmUmUmGmAmAmAmAmAmGmUmGmGmCmAmCmCmGmAmGmUmCmGmGmUmGmCmU*mU*mU*mU | 5.85 | 40.33 | 34.48 | 15.10 | 0.23
6 | G000568: TTR sgRNA modified sequence, Human, SEQ ID No. 110; guide sequence of CR003391 (nucleic acid) guide: mG*mG*mC*rUrGrUrCrGrUrCrArCrCrArArUrCrCrCrArGrUrUrUrUrArGrAmGmCmUmAmGmAmAmAmUmAmGmCrArArGrUrUrArArArArUrArArGrGrCrUrArGrUrCrCrGrUrUrArUrCrAmAmCmUmUmGmAmAmAmAmAmGmUmGmGmCmAmCmCmGmAmGmUmCmGmGmUmGmCmU*mU*mU*mU | 0.80 | 43.75 | 43.00 | 54.60 | 9.25
7 | G000498: TTR sgRNA modified sequence, Human, SEQ ID No. 105; guide sequence of CR003359 (nucleic acid) guide: mA*mG*mU*rGrArGrUrCrUrGrGrArGrArGrCrUrGrCrArGrUrUrUrUrArGrAmGmCmUmAmGmAmAmAmUmAmGmCrArArGrUrUrArArArArUrArArGrGrCrUrArGrUrCrCrGrUrUrArUrCrAmAmCmUmUmGmAmAmAmAmAmGmUmGmGmCmAmCmCmGmAmGmUmCmGmGmUmGmCmU*mU*mU*mU | 14.90 | 60.02 | 45.20 | 24.43 | 37.90
8 | G000570: TTR sgRNA modified sequence, Human, SEQ ID No. 111; guide sequence of CR003347 (nucleic acid) guide: mC*mA*mU*rUrGrArUrGrGrCrArGrGrArCrUrGrCrCrUrGrUrUrUrUrArGrAmGmCmUmAmGmAmAmAmUmAmGmCrArArGrUrUrArArArArUrArArGrGrCrUrArGrUrCrCrGrUrUrArUrCrAmAmCmUmUmGmAmAmAmAmAmGmUmGmGmCmAmCmCmGmAmGmUmCmGmGmUmGmCmU*mU*mU*mU | 0.35 | 68.42 | 68.08 | 88.30 | 17.30

— US11795460B2, “Compositions and methods for TTR gene editing and treating ATTR amyloidosis” (Intellia Therapeutics, Inc., priority 2017, dated 2023)
